Experimental data reported in the supplement of paper PMC5949888.

The sequences below were run on Saccharomyces cerevisiae PS128 hsf1 delta, HSF1(1-493) fusion (assay: growth estimate (transactivation domain function in HSF1 fusion, heat-shock survival) (a.u. (slope of normalised read count over time)); higher = stronger growth at 37°C, i.e. more transactivation activity). Conditions: library: design library.
Method in brief: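 Transactivation-domain oligos were designed and fused to a truncated yeast HSF1 (amino acids 1–493), then expressed in a yeast strain lacking hsf1. Replica plating onto –trp 5-FOA plates was followed by incubation at 30°C or 37°C for 0, 2, 4, 6 and 8 days. Inserts were amplified by PCR and sequenced on an Illumina MiSeq as six barcoded replicates from a single experiment. The growth estimate is the slope of a robust linear fit over time of read counts normalised to sample totals and to starting count.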
With MLSSHGFSVDTSALLDLRSP the growth estimate was under -0.25. PFPDTQDDFLKWWKSEEAQ showed a growth estimate of -0.186. EDDDRFSLWDSML gave a growth estimate of -0.141. EGNDLLDLDFILSN gave a growth estimate of 0.62. In the case of DFDKDMLGDFDLDMLG, the growth estimate is reported as 0.964. With LRDYDFLFGNDFA the growth estimate was -0.135. In the case of DLDESWDYIFEGTE, the growth estimate is reported as 1.27. PEFPGIELQELQELQALLKQ gave a growth estimate of 0.0452. Work on PEFPGIELQELQELQALLQA yielded a growth estimate of -0.246. PEFPGIEGQELQELQALLQQ gave a growth estimate of under -0.25. LFDYPFLFGNDFA showed a growth estimate of 1.53. PFPDTQDDFLKWWRKEEAQ was tested, and the growth estimate was -0.247. Sequence LFDYDFKFGNDFA has a growth estimate of -0.229. In the case of DFDRDMLGDFDLDMLG, the growth estimate is reported as 1.31. Work on DLDESWDAIFETTE yielded a growth estimate of under -0.25. Work on VADDIWAELLSEDL yielded a growth estimate of 8.23. In the case of EDDDEFSKWDSML, the growth estimate is reported as -0.228. With DLDRSWDYIFETTE the growth estimate was -0.214. KFNDLLDLDFILSN showed a growth estimate of 0.326. Work on TMDDVYNYLRDD yielded a growth estimate of under -0.25. For MLSSHGFSVDTSALRDLFSP, the growth estimate was -0.196. Sequence DFDLAMLGDFDLDMLG has a growth estimate of 9.96. EDDDEFSGWDSML was tested, and the growth estimate was 0.0815. EFNDLLRLDFILSN gave a growth estimate of under -0.253. With DLDEKWDYIFETTE the growth estimate was under -0.25. In the case of DFRLDMLGDFDLDMLG, the growth estimate is reported as 10.1. RFPDTQDDFLKWWRSEEAQ was tested, and the growth estimate was -0.221. Sequence MLSSHGFSADTSALLDLFSP has a growth estimate of -0.026. Sequence AFDYDFLFGNDFA has a growth estimate of 10.5. For QQNGEIAQLWRFN, the growth estimate was -0.166. QQNGEIAQLWDFR showed a growth estimate of -0.245. Work on TMDDVYRYLFDD yielded a growth estimate of 1.71. MLSSHGFGVDTSALLDLFSP showed a growth estimate of -0.0322. Sequence PFPDTQDDKLKWWRSEEAQ has a growth estimate of -0.245. VADDIWERLLSEDL gave a growth estimate of 2.04. In the case of DLDESWDYIFETTE, the growth estimate is reported as 1.92. In the case of LFDYDFGFGNDFA, the growth estimate is reported as 1.76. For PFPDTQDDFLKWWRSEEAR, the growth estimate was -0.248. For DPLSWIIELLEKDG, the growth estimate was -0.102. Work on MLSSHGFSVDASALLDLFSP yielded a growth estimate of 0.0915. DELSKIIELLEKDG was tested, and the growth estimate was under -0.25. Sequence EDADEFSLWDSML has a growth estimate of 0.354. In the case of DFDLDMLGDPDLDMLG, the growth estimate is reported as 10.1. DFDLDMGGDFDLDMLG was tested, and the growth estimate was 8.13. EFNDLLGLDFILSN gave a growth estimate of under -0.25. TMPDVYNYLFDD was tested, and the growth estimate was -0.0795. Work on PFPDTKDDFLKWWRSEEAQ yielded a growth estimate of under -0.25. Sequence DFDLDMLGDFDRDMLG has a growth estimate of 0.584. DLDESWDYIFERTE gave a growth estimate of 0.415. Sequence DFDLDMLGDFDLPMLG has a growth estimate of 1.24. For PFPDRQDDFLKWWRSEEAQ, the growth estimate was -0.241. With PFPDTQDDFLKGWRSEEAQ the growth estimate was -0.242. Sequence TMDDVGNYLFDD has a growth estimate of under -0.25. Sequence PFPDTQDDFGKWWRSEEAQ has a growth estimate of under -0.25. KADDIWEELLSEDL gave a growth estimate of 0.514. DELSWIIELLEKGG was tested, and the growth estimate was 0.213. DLDESWDYIFKTTE gave a growth estimate of 0.154. PFPRTQDDFLKWWRSEEAQ showed a growth estimate of -0.248. Work on QQNGAIAQLWDFN yielded a growth estimate of -0.114. Sequence LFDYDFLFANDFA has a growth estimate of 2.92. DLDESWKYIFETTE showed a growth estimate of -0.0397. LFDYDFRFGNDFA gave a growth estimate of -0.0564. In the case of VADDIWEELLSEDR, the growth estimate is reported as 0.315. QQNGKIAQLWDFN showed a growth estimate of -0.237. DFDLDMLGDFPLDMLG showed a growth estimate of 1.65. With EDDDEFSLWDSML the growth estimate was 1.95. ERLYSILWSDVY was tested, and the growth estimate was under -0.25. With EFNRLLDLDFILSN the growth estimate was under -0.25. For TMDDVRNYLFDD, the growth estimate was under -0.25. Sequence DELSWIIERLEKDG has a growth estimate of under -0.25. DELKWIIELLEKDG was tested, and the growth estimate was -0.0445. With EDDDEFSLWGSML the growth estimate was 1.19. In the case of MLSSHGFSVDTSALLDLKSP, the growth estimate is reported as -0.096. EDDDEFSLPDSML was tested, and the growth estimate was -0.126. DFDLDKLGDFDLDMLG was tested, and the growth estimate was 1.4. EDDDPFSLWDSML showed a growth estimate of 2.41. EFNDLLDLDFILSA was tested, and the growth estimate was -0.12. Sequence PEGPGIELQELQELQALLQQ has a growth estimate of under -0.25. With DLDESWDGIFETTE the growth estimate was 0.5. With MLSSHRFSVDTSALLDLFSP the growth estimate was -0.227. DLDEPWDYIFETTE gave a growth estimate of 1.58. DLDESWDRIFETTE showed a growth estimate of under -0.25. In the case of DLDESWDYIFEPTE, the growth estimate is reported as 1.97. With VADDIPEELLSEDL the growth estimate was -0.228. In the case of PEFPKIELQELQELQALLQQ, the growth estimate is reported as under -0.25. With DFDLDMLGDFDPDMLG the growth estimate was 10.6. QQNPEIAQLWDFN gave a growth estimate of -0.234. For PEFPGIELQELQELQALLQQ, the growth estimate was -0.0979. MLSSHGFSVDTSALLDLGSP was tested, and the growth estimate was -0.228. With DELSWIIELLEKDG the growth estimate was 1.7. Sequence VADDIWEPLLSEDL has a growth estimate of -0.234. QQNGEIAGLWDFN gave a growth estimate of -0.148. QQNGEKAQLWDFN gave a growth estimate of -0.22. For VADRIWEELLSEDL, the growth estimate was -0.176. MLSSHGFSVDTSRLLDLFSP gave a growth estimate of -0.171. Sequence KFDYDFLFGNDFA has a growth estimate of 1.06. DLDESWDYIFEKTE was tested, and the growth estimate was -0.233. In the case of PFPDTGDDFLKWWRSEEAQ, the growth estimate is reported as -0.0916. In the case of QQNGEIAQLWGFN, the growth estimate is reported as under -0.261. With LFDYDFLFGADFA the growth estimate was 1.91. Sequence KELSWIIELLEKDG has a growth estimate of -0.245. Sequence QGNGEIAQLWDFN has a growth estimate of under -0.25. For EADDEFSLWDSML, the growth estimate was 0.306. Work on EDDDEASLWDSML yielded a growth estimate of under -0.25. For TMDDVYNYLFDG, the growth estimate was 0.0766. In the case of PEFPGIEKQELQELQALLQQ, the growth estimate is reported as 0.269. In the case of DFDLDMLGDFDLDMRG, the growth estimate is reported as 6.95. In the case of VADDIWEELRSEDL, the growth estimate is reported as -0.205. EFNDLLDLDFIGSN gave a growth estimate of 2.81. Sequence ADDDEFSLWDSML has a growth estimate of 1.96. DEPSWIIELLEKDG showed a growth estimate of -0.161. In the case of PEFPGRELQELQELQALLQQ, the growth estimate is reported as under -0.25. With AADDIWEELLSEDL the growth estimate was 2.1. PFPDTQDDFLRWWRSEEAQ showed a growth estimate of -0.0276. For VADDIWEELLSPDL, the growth estimate was 0.482. Sequence DELSWIIELLEKDR has a growth estimate of 0.276. With LFDYRFLFGNDFA the growth estimate was -0.216. With EDDDEFSLWDSMG the growth estimate was -0.226. Work on PFPDTQDDFLKAWRSEEAQ yielded a growth estimate of under -0.25. In the case of MLSSHGFSVDTSALKDLFSP, the growth estimate is reported as under -0.25. MLSSHGFSVDTSKLLDLFSP gave a growth estimate of -0.143. DELSWIIELLEPDG gave a growth estimate of 7.58. With DFDLDMLGDFDLAMLG the growth estimate was -0.0527. PEFPGIELQRLQELQALLQQ gave a growth estimate of -0.107. For MLSSHGFSVDTSALLDLFSP, the growth estimate was 0.0347. GADDIWEELLSEDL showed a growth estimate of 1.28. Sequence MLSSHGFSVDTSALLGLFSP has a growth estimate of -0.207. LFDYDFLFGRDFA was tested, and the growth estimate was 3.41. PFPDTQGDFLKWWRSEEAQ gave a growth estimate of -0.248. EFNDLRDLDFILSN gave a growth estimate of -0.248. In the case of MLSSHGFSVDTSPLLDLFSP, the growth estimate is reported as -0.191. With EFNKLLDLDFILSN the growth estimate was under -0.25. DLDESWDKIFETTE was tested, and the growth estimate was -0.06. Work on DELSWIKELLEKDG yielded a growth estimate of 0.278. With QQNGRIAQLWDFN the growth estimate was -0.248. Sequence EFPDLLDLDFILSN has a growth estimate of 0.17. MLSSHGFSVDTSALLDLFRP showed a growth estimate of -0.22. For PEFPGIKLQELQELQALLQQ, the growth estimate was -0.02. With MLSSHGFSRDTSALLDLFSP the growth estimate was under -0.25. Work on AELSWIIELLEKDG yielded a growth estimate of -0.248. Sequence VKDDIWEELLSEDL has a growth estimate of -0.23. EDLYSILGSDVY gave a growth estimate of under -0.25. DFDLDMLGDFDADMLG gave a growth estimate of 21.1. With QQNGEIAQLWDRN the growth estimate was -0.121. Work on QQNGEPAQLWDFN yielded a growth estimate of -0.235. In the case of DLDESWDYIFETPE, the growth estimate is reported as 0.951. Sequence MLSGHGFSVDTSALLDLFSP has a growth estimate of -0.0767. DLDESWDYIFETTA was tested, and the growth estimate was 0.992. Sequence DFDLDMAGDFDLDMLG has a growth estimate of 11.3. DELSWIIEKLEKDG was tested, and the growth estimate was under -0.25. In the case of VADDIWEELLSEGL, the growth estimate is reported as 10.4.
